The record followed here is patent publication US20240122985A1, “ANTIBODIES, COMBINATIONS COMPRISING ANTIBODIES, BIOMARKERS, USES & METHODS” (KYMAB LIMITED, priority 2016, published 2024).

Values joined by “and” are separate entries in the source; they are usually repeats but may differ in a detail not shown here. Equal values may be shown once.

Assay type in all cases: in vivo, Rhesus macaque
Data set [1] has as its system peripheral blood and tissue T-cells. The experiment in a line: Flow cytometry of T-cell subsets after HCT (Tscm, TN, TCM, TEM, Ki-67, OX40, Treg, cytokines). Here is the method: Longitudinal peripheral blood samples were collected before and after haematopoietic stem cell transplant and at necropsy for flow cytometric analysis of lymphocyte subsets. Lung, liver, colon spleen and lymph node (axillary and inguinal) tissues were collected at necropsy and dissociated or enzymatically digested as appropriate for subsequent analysis of lymphocyte infiltrates by flow cytometry. Samples were analysed by multicolour flow cytometry using a LSRFortessa cell analyser (BD Biosciences) using the following T lymphocyte marker probes: CD3 (APC-Cy7 label; clone SP34-2, BD Biosciences), CD4 (BV786 label; clone L200, BD Biosciences), CD8 (BUV395 label; clone RPA-T 8, BD Bioscences), CD28 (PE-Cy7 label; clone CD28.2, eBioscience), CD95 (BV605 label; clone DX2, Biolegend). Proliferating cell populations were identified using Ki-67 (FITC label, Dako). CD4^+ or CD8^+T-cell subcompartments were labelled as follows: naïve T-cells (CD28^+/CD95^−), central memory T-cells (CD28^+/CD95^+), effector memory T-cells (CD28−/CD95^+).
Blood was collected into tubes with Sodium EDTA, and then red blood cells were lysed with lysis buffer containing ammonium chloride. Remaining leukocytes were washed with FACS buffer (PBS with 2% FBS) and stained with antibody cocktail (Table 7) for 30 minutes at 4° C. After staining, cells were washed and fixed in 1× BD Stabilising Fixative. Acquisition of flow data was performed on BD LSR Fortessa cytometer. Data were analysed using FloJo. T-cells were defined as CD3^+CD14/CD20-lymphocytes.
Peripheral blood mononuclear cells were isolated at different time points by Ficoll-Paque gradient and then were stained for cell surface markers (CD3, CD4, CD8) followed by fixation/permeabilization (using BD Cytofix/Cytoperm kit) and intracellular staining for Ki-67. Ki-67 expression in NHP peripheral blood CD4^+ (FIG. 8A) and CD8^+ (FIG. 8B) was measured. T-cells before (pre-HCT) and following allogeneic HCT in recipients being untreated (No Rx) or treated with OX40L antibody. Plots show Ki-67 expression in NHP peripheral blood bulk CD4^+ (FIG. 8C) and CD8^+ (FIG. 8D) T-cells before (pre-HCT) and following allogeneic HCT in recipients treated with rapamycin and with a combination of rapamycin and anti-OX40L antibody. Statistical analysis was performed using Holm-Sidak multiple-comparison post-test. *p<0.05.
Peripheral blood mononuclear cells were isolated prior (pre-HCT) and during terminal analysis following allogeneic HCT without immunoprophylaxis (No Rx), or treatment with rapamycin, or treatment with anti-OX40L antibody, or treatment with a combination of anti-OX40L antibody and rapamycin by Ficoll-Paque gradient and then were stained for cell surface markers (CD3, CD4, CD8, CD25, CD127 and OX40) followed by fixation/permeabilization (using BioLegend FoxP3 kit) and intracellular staining for FoxP3.
Animals were kept on the indicated immunoprophylaxis regimens. Time-points with n<3 were censored. Multiple t-test with Holm-Sidak correction was performed between the groups.
Whole blood cells were stained for CD3, CD4, CD8, CD14, CD20, CD45RA and CCR7 and then analysed by FACS. T-cells were defined as CD3^+CD14^−CD20^− lymphocytes and divided into CD4^+ and CD8^+ T-cell subsets. Memory T-cells (Tmem) were defined as CD45RA- and effector Tcells (Teff) as CD45RA+CCR7^− Tcells in both CD4 and CD8 gates. Combined populations of memory+effector CD4^+(FIG. 10A) and CD8^+(FIG. 10B) T-cells were longitudinally tracked before and at different time point following allogeneic HCT in recipients treated with anti-OX40L antibody, treated with rapamycin, or with a combination of rapamycin and anti-OX40L antibody. […]

Data set [2] concerns Cytomegalovirus (CMV), bacterial and fungal infections. The experiment in a line: CMV monitoring and infections after transplant. As to conditions: 2D10 IgG4PE Rhesus GvHD Study, per animal. How it is done:
Cytomegalovirus (CMV) monitoring was performed as previously described (Larsen et al, 2010) and is reported as CMV copies/mL of whole blood. Whole blood samples were collected and CMV viral load was measured twice weekly on days 0 to 30 post-HCT, then at least once weekly on days 31 to 60 post-HCT and then at least once every 2 weeks from day 61 until the experimental endpoint. CMV prophylaxis and treatment was performed according to our standard NHP strategy, as previously described (Zheng et al, 2017). Briefly, CMV prophylaxis was provided to all transplant recipients and included weekly Cidofovir, given at a dose of 5 mg/kg, along with renal protection with 3 doses of Probenecid (167 mg PO/dose) given within the first 24 hours after each cidofovir dose. Recipients who reactivated CMV continued cidofovir and were also treated with parenteral gancyclovir, which was given at 5 mg/kg/dose twice daily. Gancyclovir treatment was continued until CMV levels were undetectable for two weeks and then discontinued.

The test system of data set [3] is peripheral blood or T-cell donor chimerism. Nature of the data set: Donor chimerism in rhesus HSCT recipients (microsatellite markers). As to conditions: per animal. Here is the method: Peripheral blood or T-cell (CD3^+/CD20−) chimerism was determined using divergent donor- and recipient-specific MHC-linked microsatellite markers, by comparing peak heights of the donor- and recipient-specific amplicons (Penedo M C et al, (2005) “Microsateliite typing of the rhesus macaque MHC region”, Imunogenetics 57:198-209).
Flow cytometrically-sorted T-cells (CD3^+/CD20−) were analysed for donor chimerism based on divergent microsatellite markers. Chimerism analysis was performed at the UC Davis veterinary genetics laboratory as previously described (Larsen et al., 2010; Kean et al., 2007).

With “KY1005: antibody used for GVHD immunoprophylaxis in NHP, measured by antigen (OX40L) capture assay; not tied to 02D10 in this part”, the “frequency of OX40^+ Treg cells” value in data set [1] (FIGS. 8O and 8O-1) is “does not affect”. The “relative and absolute numbers of CD4^+ TCM cells” value in data set [1] (after HCT, p<0.05) is reported as “significant reductions”. In addition, in data set [1] (after transplant (FIG. 8N)), the “CD4^+ T-cell production of IFNγ, TNFα or IL-2” value is on record as “without affecting” and the “ability of CD4^+ T-cells to express IL17A” value is on record as “specifically reducing their ability to express IL17A”. Further, in data set [1] (monotherapy (FIGS. 8F & 8G)), the “proliferation of CD8^+ T-cells” value is recorded as “less effect” and the “sustained CD4^+ T-cell proliferation, as measured by Ki67 expression” value was “significant inhibitory impact”. The “Treg to Tconv ratio” value in data set [1] (peripheral blood after HCT (FIG. 11B)) was “protected against the significant drop”.

B1: 2D10 IgG4PE: fully human anti-human OX40L monoclonal antibody, human IgG4-PE; VH Seq ID No:34, VL Seq ID No:48; 2D10-1 to -4 are stable pools (antibody, V domains shown)
VH: EVQLVESGGGLVQPGGSLRLSCAASGFTFSNYAMNWVRQAPGKGLEWVSTISGSGGATRYADSVKGRFTISRDNSRNTVYLQMNSLRVEDTAVFYCTKDRLIMATVRGPYYYGMDVWGQGTTVTVSS
VL: DIQMTQSPSSLSASVGDRVTITCRASQSISSYLNWYQQKPGKAPNLLIYAASSLQSGVPSRFSGSGSETDFTLTISSLQPEDFATYYCQQSHSVSFTFGPGTKVDIK
modifications: human IgG4-PE constant regions; 02D10 - VH Amino Acid Sequence; 02D10 - VL Amino Acid Sequence
With B1, the “Ki-67 expression on T-cells / T-cell proliferation” value in data set [1] (NHP peripheral blood after allogeneic HCT (FIG. 8)) is given as “reverses that expression”. Also, in data set [1] (Rhesus macaque after allogeneic HCT (FIG. 4)), the “CD4^+ Tscm expansion” value was “limited CD4^+ Tscm expansion”. Further, in data set [1] (after allogeneic HCT (FIG. 10)), the “T(eff+mem) cell population” value is “does not effectively suppress proliferation of CD8^+T(eff+mem) cells”. For the same molecule, the “proportion of Tscm cells compared with the sirolimus and Tac/MTX treatment” value in data set [1] (peripheral blood, post-HCT (FIG. 6a, 6b)) is reported as “sustained inhibition”. Also, the “evidence of CMV or rhLCV infection” value in data set [2] was “No evidence of CMV or rhLCV infection and No (3×) and followed by autologous repopulation concurrent with evidence of CMV and rhLCV”. Besides, in data set [3] (2D10 IgG4PE Rhesus GvHD Study), the “Peak peripheral blood donor chimerism” value was 88% and 99% (2×) and 100%. For the same molecule, the “Whole Blood Chimerism (%) Day 0” value in data set [3] (Day 0) turned out to be 0%. The “Whole Blood Chimerism (%) Day 1” value in data set [3] (Day 1) was 16.6% and 5.7% and 22.9%. For the same molecule, in data set [3] (Day 4), the “Whole Blood Chimerism (%) Day 4” value amounted to 6.6%. Besides, in data set [3] (Day 5), the “Whole Blood Chimerism (%) Day 5” value was 91.4% and 66.3% and 31.7% and 68.2%. Moreover, the “Whole Blood Chimerism (%) Day 7” value in data set [3] (Day 7) was 27.5%. Also, the “Whole Blood Chimerism (%) Day 8” value in data set [3] (Day 8) is 98.4% and 97.4% and 66.3% and 82.9%. For the same molecule, in data set [3] (Day 11), the “Whole Blood Chimerism (%) Day 11” value was 90.4%. Also, the “Whole Blood Chimerism (%) Day 12” value in data set [3] (Day 12) is 98.6% and 99.5% and 82.3% and 92.1%. In addition, the “Whole Blood Chimerism (%) Day 14” value in data set [3] (Day 14) came to 81.8%. Moreover, in data set [3] (Day 15), the “Whole Blood Chimerism (%) Day 15” value was 99.1% and 99.4% and 88.2% and 97.5%. Further, the “Whole Blood Chimerism (%) Day 16” value in data set [3] (Day 16) is reported as 79.8%. In addition, the “Whole Blood Chimerism (%) Day 18” value in data set [3] (Day 18) was determined as 19.7%. Also, the “Whole Blood Chimerism (%) Day 20” value in data set [3] (Day 20) was 99.2% and 98.4%. The “Whole Blood Chimerism (%) Day 21” value in data set [3] (Day 21) amounted to 0%. Also, the “Whole Blood Chimerism (%) Day 23” value in data set [3] (Day 23) is 98.6% and 98.8%. For the same molecule, in data set [3] (Day 26), the “Whole Blood Chimerism (%) Day 26” value came to 98.7%.
